Test results reported in publication PMC7589674.

Biological target: The-05 (variant of the HFt-MP-PASE construct bearing the Lys53Glu, Lys71Glu, Thr135Glu and Lys143Glu mutations) (human)
Assay: SEC + other: dynamic light scattering + other: negative-stain TEM; empty The-05; Superose 6 in PBS pH 7.4; DLS at 25 °C, 1 mg/mL in diluted PBS (1:2); TEM 0.1 mg/mL, 2% uranyl acetate; assembly of the subunits into the cage

Work on “The-05 (variant of the HFt-MP-PASE construct bearing the Lys53Glu, Lys71Glu, Thr135Glu and Lys143Glu mutations) (designed binder)” yielded a stoichiometry N of 24.
